The labels stand for the following.
B1: unnamed (parent)
chain 1: HSQGTFTSDYSKYLDSRRAQDFVQWLMNTKRNRNNIA
chain 2: RPQGATVSLWETVQKWREYRRQCQRSLTEDPPPATDLFCNRTFDEYACWPDGEPGSFVNVSCPWYLPWASSVPQGHVYRFCTAEGLWLQKDNSSLPWRDLSECEESKRGERSSPEEQLLFLYIIYTVGYALSFSALVIASAILLGFRHLHCTRNYIHLNLFASFILRALSVFIKDAALKWMYSTAAQQHQWDGLLSYQDSLSCRLVFLLMQYCVAANYYWLLVEGVYLYTLLAFSVLSEQWIFRLYVSIGWGVPLLFVVPWGIVKYLYEDEGCWTRNSNMNYWLIIRLPILFAIGVNFLIFVRVICIVVSKLKANLMCKTDIKCRLAKSTLTLIPLLGTHEVIFAFVMDEHARGTLRFIKLFTELSFTSFQGLMVAILYCFVNNEVQLEFRKSWERWRLEHLHIQRDSSMKPLKCPTSSLSSGATAGSSMYTATCQASCS

The variants in this assay derive from B1. The experiment in a line: radioligand inhibition binding (competition with 125I-exendin-4(9-39)). The following applies: read off a plot.
As for chain 2 Y266A, the log10 ratio is 0.1 ΔpKi. To chain 2 W274A belongs -0.1 ΔpKi; to chain 2 N279A, -1.4 ΔpKi.

Regarding chain 2 T355A, the log10 ratio is -0.55 ΔpKi. To chain 2 S183A belongs 0.1 ΔpKi. Take chain 2 Y182A: the log10 ratio was -0.3 ΔpKi. To chain 2 T184A belongs -0.05 ΔpKi; to chain 2 Q188A, -0.05 ΔpKi. With chain 2 N277A the figure was -1.4 ΔpKi; with chain 2 Y197A, -0.3 ΔpKi. With chain 2 R353A the figure was -0.35 ΔpKi; with chain 2 T363A, -0.2 ΔpKi. Take chain 2 Q190A: the log10 ratio was 0.1 ΔpKi.

Turning to chain 2 S196A, the log10 ratio was 0.1 ΔpKi. With chain 2 T275A the figure was 0.4 ΔpKi; with chain 2 M280A, -0.8 ΔpKi. chain 2 Y268A: the log10 ratio was -0.45 ΔpKi. With chain 2 V264A the figure was -0.25 ΔpKi; with chain 2 Q198A, 0.15 ΔpKi; with chain 2 W191A, -0.15 ΔpKi. To chain 2 Q187A belongs -0.65 ΔpKi; to chain 2 S278A, -0.35 ΔpKi; to chain 2 Y282A, -1.9 ΔpKi. Turning to chain 2 W180A, the log10 ratio is -0.15 ΔpKi. With chain 2 M181A the figure was -1.5 ΔpKi. Turning to chain 2 R357A, the log10 ratio was -0.55 ΔpKi. Take chain 2 N281A: the log10 ratio is -0.5 ΔpKi. To chain 2 R276A belongs -1.9 ΔpKi; to chain 2 S200A, -0.35 ΔpKi.

(Values after PMC4912689, “The Extracellular Surface of the GLP-1 Receptor Is a Molecular Trigger for Biased Agonism” (Cell, 2016).)
